Results published in US20250197488A1 (MABWELL SHANGHAI BIOSCIENCE, published 2025).

B1: hz8C8-VHm1 + hz8C8-VLm7-m4 (antibody, human IgG1, kappa, V domains shown)
VH: EVQLVESGGGLVQPGGSLRLSCAASGFTFSSFGMHWVRQAPGKGLEWVAYITPGSNTIYYADTVKGRFTISRDNAKNSLYLQMNSLRAEDTAVYYCAREYYSYDEGFAYWGQGTLVTVSS
VL: EIVLTQSPATLSLSPGERATLSCSVSDLIPSQYLHWYQQKPGQAPRLLIYRTSNRASGIPARFSGSGSGTDFTLTISSLEPEDFAVYYCQQGVDVPFTFGQGTKLEIKR
notes: human IgG1 constant regions
B2: hz8C8-VHm1 + hz8C8-VLm8 (antibody, human IgG1, kappa, V domains shown)
VH: EVQLVESGGGLVQPGGSLRLSCAASGFTFSSFGMHWVRQAPGKGLEWVAYITPGSNTIYYADTVKGRFTISRDNAKNSLYLQMNSLRAEDTAVYYCAREYYSYDEGFAYWGQGTLVTVSS
VL: EIVLTQSPATLSLSPGERATLSCSVSDLIPSQYLSWYQQKPGQAPRLLIYRTSNLASGIPARFSGSGSGTDFTLTISSLEPEDFAVYYCQQGVDVPFTFGQGTKLEIKR
notes: human IgG1 constant regions
B3: hz8C8-VHm1 + hz8C8-VLm9 (antibody, human IgG1, kappa, V domains shown)
VH: EVQLVESGGGLVQPGGSLRLSCAASGFTFSSFGMHWVRQAPGKGLEWVAYITPGSNTIYYADTVKGRFTISRDNAKNSLYLQMNSLRAEDTAVYYCAREYYSYDEGFAYWGQGTLVTVSS
VL: EIVLTQSPATLSLSPGERATLSCSVSDLIPSQYLAWYQQKPGQAPRLLIYRTSNLASGIPARFSGSGSGTDFTLTISSLEPEDFAVYYCQQGVDVPFTFGQGTKLEIKR
notes: human IgG1 constant regions
B4: hz8C8-VHm1-m1 + hz8C8-VLm7 (antibody, human IgG1, kappa, V domains shown)
VH: EVQLVESGGGLVQPGGSLRLSCAASGFTFSSYGMHWVRQAPGKGLEWVAYITPGSNTIYYADTVKGRFTISRDNAKNSLYLQMNSLRAEDTAVYYCAREYYSYDEGFAYWGQGTLVTVSS
VL: EIVLTQSPATLSLSPGERATLSCSVSDLIPSQYLHWYQQKPGQAPRLLIYRTSNLASGIPARFSGSGSGTDFTLTISSLEPEDFAVYYCQQGVDVPFTFGQGTKLEIKR
notes: human IgG1 constant regions
B5: hz8C8-VHm1-m2 + hz8C8-VLm7 (antibody, human IgG1, kappa, V domains shown)
VH: EVQLVESGGGLVQPGGSLRLSCAASGFTFSSFGMHWVRQAPGKGLEWVASITPGSNTIYYADTVKGRFTISRDNAKNSLYLQMNSLRAEDTAVYYCAREYYSYDEGFAYWGQGTLVTVSS
VL: EIVLTQSPATLSLSPGERATLSCSVSDLIPSQYLHWYQQKPGQAPRLLIYRTSNLASGIPARFSGSGSGTDFTLTISSLEPEDFAVYYCQQGVDVPFTFGQGTKLEIKR
notes: human IgG1 constant regions
B6: hz8C8-VHm1-m3 + hz8C8-VLm7 (antibody, human IgG1, kappa, V domains shown)
VH: EVQLVESGGGLVQPGGSLRLSCAASGFTFSSFGMHWVRQAPGKGLEWVAYITPGSNTIYYADTVKGRFTISRDNAKNSLYLQMNSLRAEDTAVYYCAREYSSYDEGFAYWGQGTLVTVSS
VL: EIVLTQSPATLSLSPGERATLSCSVSDLIPSQYLHWYQQKPGQAPRLLIYRTSNLASGIPARFSGSGSGTDFTLTISSLEPEDFAVYYCQQGVDVPFTFGQGTKLEIKR
notes: human IgG1 constant regions
B7: hz8C8-VHm1-m3 + hz8C8-VLm7-m1 (antibody, human IgG1, kappa, V domains shown)
VH: EVQLVESGGGLVQPGGSLRLSCAASGFTFSSFGMHWVRQAPGKGLEWVAYITPGSNTIYYADTVKGRFTISRDNAKNSLYLQMNSLRAEDTAVYYCAREYSSYDEGFAYWGQGTLVTVSS
VL: EIVLTQSPATLSLSPGERATLSCSVSDLIPSQYLHWYQQKPGQAPRLLIYRASNLASGIPARFSGSGSGTDFTLTISSLEPEDFAVYYCQQGVDVPFTFGQGTKLEIKR
notes: human IgG1 constant regions
B8: hz8C8-VHm1-m3 + hz8C8-VLm7-m2 (antibody, human IgG1, kappa, V domains shown)
VH: EVQLVESGGGLVQPGGSLRLSCAASGFTFSSFGMHWVRQAPGKGLEWVAYITPGSNTIYYADTVKGRFTISRDNAKNSLYLQMNSLRAEDTAVYYCAREYSSYDEGFAYWGQGTLVTVSS
VL: EIVLTQSPATLSLSPGERATLSCSVSDLIPSQYLHWYQQKPGQAPRLLIYDASNLASGIPARFSGSGSGTDFTLTISSLEPEDFAVYYCQQGVDVPFTFGQGTKLEIKR
notes: human IgG1 constant regions
B9: hz8C8-VHm1-m3 + hz8C8-VLm7-m3 (antibody, human IgG1, kappa, V domains shown)
VH: EVQLVESGGGLVQPGGSLRLSCAASGFTFSSFGMHWVRQAPGKGLEWVAYITPGSNTIYYADTVKGRFTISRDNAKNSLYLQMNSLRAEDTAVYYCAREYSSYDEGFAYWGQGTLVTVSS
VL: EIVLTQSPATLSLSPGERATLSCSVSDLIPSQYLHWYQQKPGQAPRLLIYGASNLASGIPARFSGSGSGTDFTLTISSLEPEDFAVYYCQQGVDVPFTFGQGTKLEIKR
notes: human IgG1 constant regions
B10: hz8C8-VHm1-m3 + hz8C8-VLm7-m4 (antibody, human IgG1, kappa, V domains shown)
VH: EVQLVESGGGLVQPGGSLRLSCAASGFTFSSFGMHWVRQAPGKGLEWVAYITPGSNTIYYADTVKGRFTISRDNAKNSLYLQMNSLRAEDTAVYYCAREYSSYDEGFAYWGQGTLVTVSS
VL: EIVLTQSPATLSLSPGERATLSCSVSDLIPSQYLHWYQQKPGQAPRLLIYRTSNRASGIPARFSGSGSGTDFTLTISSLEPEDFAVYYCQQGVDVPFTFGQGTKLEIKR
notes: human IgG1 constant regions
B11: hz8C8-VHm1-m4 + hz8C8-VLm7-m2 (antibody, human IgG1, kappa, V domains shown)
VH: EVQLVESGGGLVQPGGSLRLSCAASGFTFSSFGMHWVRQAPGKGLEWVSYITPGSNTIYYADTVKGRFTISRDNAKNSLYLQMNSLRAEDTAVYYCAREYYSYDEGFAYWGQGTLVTVSS
VL: EIVLTQSPATLSLSPGERATLSCSVSDLIPSQYLHWYQQKPGQAPRLLIYDASNLASGIPARFSGSGSGTDFTLTISSLEPEDFAVYYCQQGVDVPFTFGQGTKLEIKR
notes: human IgG1 constant regions
B12: hz8C8-VHm1-m5 + hz8C8-VLm7-m2 (antibody, human IgG1, kappa, V domains shown)
VH: EVQLVESGGGLVQPGGSLRLSCAASGFTFSSFGMHWVRQAPGKGLEYVAYITPGSNTIYYADTVKGRFTISRDNAKNSLYLQMNSLRAEDTAVYYCAREYYSYDEGFAYWGQGTLVTVSS
VL: EIVLTQSPATLSLSPGERATLSCSVSDLIPSQYLHWYQQKPGQAPRLLIYDASNLASGIPARFSGSGSGTDFTLTISSLEPEDFAVYYCQQGVDVPFTFGQGTKLEIKR
notes: human IgG1 constant regions

Assays:
[1] = target: T1, human IL-11 (AAH12506.1, Pro22-Leu199) (human, UniProt P20809 22-199); assay: BLI (Octet), antibody captured, human IL-11 in solution
T1 construct: The range Pro22-Leu199 counts on AAH12506.1; The Octet runs say only 'human IL-11'; also called hIL-11
T1 chain: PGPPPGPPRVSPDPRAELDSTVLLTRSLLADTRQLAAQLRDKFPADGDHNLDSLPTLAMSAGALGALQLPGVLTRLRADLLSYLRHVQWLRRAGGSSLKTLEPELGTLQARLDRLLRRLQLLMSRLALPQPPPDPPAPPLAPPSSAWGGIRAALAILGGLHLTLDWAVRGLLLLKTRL
Description: The affinity of the murine antibodies purified from the hybridoma supernatants was determined using an Octet QKe System instrument from Fortebio Inc. with an anti-mouse IgG Fc Capture biosensor to capture the Fc fragments of the antibodies, for which an anti-IL-11 antibody named “3C6-mFc” recombinantly expressed was used at the same concentration as a positive control. Specifically, a hybridoma supernatant was diluted with HBS-EP+ buffer (GE), and was allowed to pass through the surface of AMC probes (Cat: 18-5088, PALL), and so the antibody in the hybridoma supernatant was captured on the surface of the probes; then, human IL-11 diluted in the HBS-EP+ buffer (300 nM) was used as a mobile phase to react with the antibody captured on the surface of the probes. Both the binding and the dissociating were conducted for 300 seconds. When the experiment was finished, data from which response values of blank controls had been deducted was fitted using a 1:1 Langmuir binding model by software, and then kinetic constants for antigen-antibody binding were calculated. Binding signals were detected on the Octet QKe System instrument with Hy5C2, Hy8C8, Hy16B5, Hy18A10, and Hy18H10.
The affinity of hz18A10 and hz8C8 was determined according to the method provided in Example 1 using AHC bioprobes for capturing human Fc fragment instead, with other conditions unchanged. A recombinantly expressed anti-IL-11 antibody 3C6-hFc was used at the same concentration as a positive control.
(§1) Then, light and heavy chain expression vectors for preparing mutant antibodies were constructed according to the method for preparing the recombinant antibodies provided in Example 4, using the mutant sequences shown in Table 3 which accordingly were linked with human IgG1 constant regions (SEQ ID NO. 13, and SEQ ID NO.14). Subsequently, the light chain and the heavy chain were reasonably matched and co-transfected into eukaryotic cells for transient expression, and then recombination protein samples of the mutant antibodies were obtained through affinity purification. The samples obtained were tested for affinity on Fortebio Octet, according to the method for measuring affinity provided in Example 1.

[2] = target: T2, IL-11 (Cat. 12225-HNCE, Sino Biological Inc.) (UniProt P20809 22-199, limits assumed); assay: cell-based or functional assay
T2 sequence (looked up): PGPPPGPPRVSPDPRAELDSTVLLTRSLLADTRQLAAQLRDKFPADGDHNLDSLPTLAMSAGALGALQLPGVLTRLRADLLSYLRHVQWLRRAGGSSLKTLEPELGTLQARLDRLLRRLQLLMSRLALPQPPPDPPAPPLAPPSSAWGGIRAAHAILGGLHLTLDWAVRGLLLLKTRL

[3] = target: T2, IL-11 (Cat. 12225-HNCE, Sino Biological …); assay: competition ELISA, IL-11/IL-11Rα/GP130 complex
Description: The activity of the recombinant murine anti-IL-11 antibodies for blocking the formation of IL-11/IL-11Rα/GP130 complex was analyzed via competition ELISA. IL-11Rα-His (NP_004503.1, Met1-Val363, C-terminus-6-His Tag) was firstly added into ELISA plates to be coated overnight. Next day, samples were prepared as follows. […] After co-incubating and washing, an HRP conjugated anti-human Fc secondary antibody was added to develop the color which was then detected.
as §1, with “1. Further, using the protocol provided in Example 3, hz8C8 and its affinity matured mutants were analyzed for their activity for blocking the formation of IL-11/IL-11Rα/GP130 complex.” for “1.”

Binder	Kd [1] [nM]	koff [1] [s⁻¹]	kon [1] [M⁻¹ s⁻¹]	Blocking activity (IC50), STAT3-luc reporter [2] [µg/mL]	IC50 [3] [µg/mL]
B1	0.178	0.000178	1e+06	0.021	0.69
B2	0.0313	2.97e-05	948000	0.01	0.7
B3	0.0354	3.45e-05	975000	0.012	0.72
B4	0.125	0.00013	1.04e+06	0.046	0.75
B5	3.41	0.00355	1.04e+06	0.052	1.68
B6	0.0987	0.00011	1.12e+06	0.053	0.83
B7	0.0609	5.81e-05	954000	0.01	0.55
B8	< 0.001	< 1e-07	945000	0.009	0.67
B9	< 0.001	< 1e-07	972000	0.022	0.78
B10	< 0.001	< 1e-07	901000	0.02	0.47
B11	< 0.001	< 1e-07	879000	0.004	0.79
B12	0.0594	4.05e-05	683000	0.194	0.52
